Source: patent publication US20030171557

Experiments:
[1] = system: GST-IkBα protein [GST: P08515]
GST-IkBα protein [GST: P08515], sequence (P08515 whole entry, looked up): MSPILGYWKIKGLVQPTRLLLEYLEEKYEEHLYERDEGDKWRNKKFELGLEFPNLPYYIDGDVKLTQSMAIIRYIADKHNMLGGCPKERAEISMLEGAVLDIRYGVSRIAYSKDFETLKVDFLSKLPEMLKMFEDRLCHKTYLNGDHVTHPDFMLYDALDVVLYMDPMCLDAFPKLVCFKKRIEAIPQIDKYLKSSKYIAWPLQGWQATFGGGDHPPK

In the case of “GST fusion protein with mutant VRK1 protein (Lys 71 replaced by Trp)”, the “kinase assay, phosphorylation of substrate ([γ-32P]-ATP, SDS-PAGE, 10 mM Mg)” value (casein (Sigma)) is reported as “no phosphorylation was observed in reactions with mutant VRK1 carrying mutation in the predicted ATP binding site” and the “kinase assay, phosphorylation of substrate ([γ-32P]-ATP, SDS-PAGE, 10 mM Mg)” value [1] is reported as “no phosphorylation was observed in reactions with mutant VRK1 carrying mutation in the predicted ATP binding site”.
